What was measured:
PCSK9 gene splice site [1] = format: cell-based, human; settings: for editing activities, ranking of guides: ABE8.8 mRNA MA002
Experimental: (§1) PCSK9 gRNAs were co-transfected with an equivalent amount of in vitro transcribed ABE8.8 mRNA MA002 (1:1 ratio by weight) into primary hepatocytes and processed as described in detailed methods. In one set of experiments, extracted genomic DNA was analyzed for base editing of the target splice site with next-generation sequencing of PCR amplicons generated around the target sites. Samples were prepared using the Nextera XT DNA library preparation kit (Illumina) according to the manufacturer's protocol. Briefly, two rounds of PCR were performed first to amplify the region of interest and second to add DNA sequences required for next generation sequencing and sample identification to the initial product. The final amplicon was sequenced on the Illumina MiSeq instrument according to the manufacturer's protocol.
(§2) Similarly, three gRNAs (GA098, GA099, GA100) were synthesized matching the 5′-[…]-3′ (SEQ ID NO: 15) (GA091) human protospacer sequence, as well as four gRNAs (GA067/GA101, GA102, GA103, GA347) matching the 5′-[…]-3′ (SEQ ID NO: 14) (GA067) cynomolgus protospacer sequence, but with more extensive chemical modifications of various kinds (Table 1). GA066 and GA095 contain the same chemical composition and modification pattern, as do GA067 and GA101 with one another. […] Each of the gRNAs described in Table 8, with an equivalent amount of in vitro transcribed ABE8.8 mRNA MA002 (1:1 ratio by weight), were co-transfected into primary human hepatocytes and primary cynomolgus hepatocytes via MessengerMax reagent, using various dilutions to assess for editing activity at different concentrations of test article. Three days after transfection, genomic DNA was harvested from the hepatocytes, and then assessed for base editing of the target splice site with next-generation sequencing.
Modifications and/or truncations to either the spacer or tracr portion of the gRNA was assessed by alteration of the GA066 spacer (5′-[…]-3′ (SEQ ID NO: 13)) (Table 12). […] Each of the gRNAs with an equivalent amount of in vitro transcribed ABE8.8 mRNA (1:1 ratio by weight) were co-transfected into primary human hepatocytes and primary cynomolgus hepatocytes and processed as described in detailed methods. […]

PCSK9 gene splice site [2] = format: cell-based, cynomolgus monkey
Experimental: as §1, §2
Modifications and/or truncations to either the spacer or tracr portion of the gRNA was assessed by alteration of the GA066 spacer (5′-[…]-3′ (SEQ ID NO: 13)) (Table 12). […] Each of the gRNAs with an equivalent amount of in vitro transcribed ABE8.8 mRNA (1:1 ratio by weight) were co-transfected into primary human hepatocytes and primary cynomolgus hepatocytes and processed as described in detailed methods.
Lipid nanoparticles containing ABE8.8 mRNA and a gRNA matching the human/cynomolgus 5′-[…]-3′ (SEQ ID NO: 13) sequence (GA066) that targets the splice donor at the 5′ end of PCSK9 intron 1 were formulated at a 1:1 ratio by weight. The LNPs were administered to primary human hepatocytes and primary cynomolgus hepatocytes, using various dilutions to assess for editing activity at different concentrations of test article. LNP containing Cas9 mRNA and a gRNA matching a protospacer sequence in another gene, ANGPTL3, as a positive control was used for these experiments.
Plating, culturing, and transfection of primary hepatocytes. Primary human liver hepatocytes (PHH) and primary cynomolgus liver hepatocytes (PCH) from BioIVT were cultured per the manufacturer's protocol. Briefly, primary human hepatocytes and primary cyno hepatocytes were obtained as frozen aliquots from BioIVT.

ANGPTL3 gene [3] = assay: ANGPTL3 gRNA/SpCas9 editing in primary human hepatocytes (Table 3); format: cell-based
Experimental: (§3) In set of experiments, PCSK9 gRNAs were co-transfected with an equivalent amount (1:1 ratio by weight) of in vitro transcribed commercially available SpCas9 mRNA MS002 purchased from TriLink Biotechnologies into primary human hepatocytes at 2500, 500, or 100 ng/RNA/mL and processed as described in detailed methods. Extracted genomic DNA was analyzed for gene editing at the target site with next-generation sequencing of PCR amplicons generated around the target sites. Samples were prepared using the Nextera XT DNA library preparation kit (Illumina) according to the manufacturer's protocol. Briefly, two rounds of PCR were performed first to amplify the region of interest and second to add DNA sequences required for next generation sequencing and sample identification to the initial product. The final amplicon was sequenced on the Illumina MiSeq instrument according to the manufacturer's protocol. A wide range of editing activities (Table 2) were observed. In a second set of experiments, ANGPTL3 gRNAs were co-transfected with an equivalent amount of in vitro transcribed SpCas9 mRNA (1:1 ratio by weight) into primary human hepatocytes and processed and analyzed similarly (Table 3).
(§4) Plating, culturing, and transfection of primary hepatocytes. Primary human liver hepatocytes (PHH) and primary cynomolgus liver hepatocytes (PCH) from BioIVT were cultured per the manufacturer's protocol. Briefly, primary human hepatocytes and primary cyno hepatocytes were obtained as frozen aliquots from BioIVT. Four lots of primary human hepatocytes, each derived from a de-identified individual donor, were used for the experiments: STL (main donor) was used for all experiments, including screening experiments and off-target experiments; HLY, JLP, and TLY were used for off-target experiments. The HFG lot of primary cyno hepatocytes were used for experiments. Following the manufacturer's instructions, cells were thawed and rinsed prior to plating in 24-well plates that had been coated with bovine collagen overnight, with a density of approximate 350,000 cells/well in INVITROGRO hepatocyte medium supplemented with TORPEDO antibiotic mix (BioIVT). The cells were thawed and resuspended in hepatocyte thawing medium followed by centrifugation at 100 g for 10 min at 4° C. The supernatant was discarded, and the pelleted cells resuspended in hepatocyte plating medium. Each vial contains approximately 5 million cells that were used for plating one 24-well plate. Plated cells were allowed to settle and adhere for 4-6 h in a tissue culture incubator at 37° C. under 5% CO2 atmosphere. After incubation, cells were checked for monolayer formation. The incubating media were then replaced with fresh hepatocyte maintenance media (complete INVITROGRO medium obtained from BioIVT, the cell line provider). The cells thus became ready for transfection. Each of the gRNAs were co-transfected with an equivalent amount of in vitro transcribed ABE8.8 mRNA (1:1 ratio by molecular weight) into primary human hepatocytes via MessengerMax reagent (Lipofectamine), using various dilutions to assess for editing activity at different concentrations of test article. MessengerMAX from Thermo Fisher is used for transfection. Solution A: desired amount of guide RNA is mixed with 1:1 wt ratio of mRNA in OptiMEM. Solution B: MessengerMAX in OptiMEM. After mixing solutions A and B, the mixture was incubated at room temperature for 20 min. 60 μL of the incubated solution was added dropwise to each cell wells. For protospacer sequences that were a perfect match to the corresponding cynomolgous monkey PCSK9 or ANGPTL3 gene sequence, each gRNA was also co-transfected with an equivalent amount of ABE8.8 mRNA (1:1 ratio by molecular weight) into primary cynomolgous hepatocytes, and followed the same transfection protocol. The cells were then allowed to remain at 37° C. for 3 days. […]

ANGPTL3 gene [4] = assay: ANGPTL3 gRNA/SpCas9 editing in primary cynomolgus hepatocytes (Table 3); format: cell-based, cynomolgus monkey
Experimental: as §3, §4

| Molecule | Human Primary Hepatocytes-splice site editing % 1250 ng/mL (PCSK9 gene splice site [1]) [%] | Human Primary Hepatocytes-splice site editing % 2500 ng/mL (PCSK9 gene splice site [1]) [%] | Human Primary Hepatocytes-splice site editing % 5000 ng/mL (PCSK9 gene splice site [1]) [%] | editing activities, ranking of guides (PCSK9 gene splice site [1]) | Cynomolgous Primary Hepatocytes-splice site editing % 1250 ng/mL (PCSK9 gene splice site [2]) [%] | Cynomolgous Primary Hepatocytes-splice site editing % 2500 ng/mL (PCSK9 gene splice site [2]) [%] | Cynomolgous Primary Hepatocytes-splice site editing % 5000 ng/mL (PCSK9 gene splice site [2]) [%] | Human Primary Hepatocyte Editing % 100 ng/ml (ANGPTL3 gene [3]) [%] | Human Primary Hepatocyte Editing % 500 ng/mL (ANGPTL3 gene [3]) [%] | Cyno Primary Hepatocyte Editing % 100 ng/mL (ANGPTL3 gene [4]) [%] | Cyno Primary Hepatocyte Editing % 500 ng/ml (ANGPTL3 gene [4]) [%] |
| --- | --- | --- | --- | --- | --- | --- | --- | --- | --- | --- | --- |
| GA074: PCSK9 gRNA; protospacer TGCTTACCTGTCTGTGGAAG (SEQ ID NO: 68), splice donor of intron 4 (nucleic acid, listed as RNA; modified_base 1: mod_base = OTHER; note = 2'-O-Methyl-uridine phosphorothioate; modified_base 2: mod_base = OTHER; note = 2'-O-Methyl-guanosine phosphorothioate; modified_ba) guide: TGCTTACCTGTCTGTGGAAGGTTTTAGAGCTAGAAATAGCAAGTTAAAATAAGGCTAGTCCGTTATCAACTTGAAAAAGTGGCACCGAGTCGGTGCTTTT | 11.6 | 18.8 | 23.8 | performing the best | 17.5 | 20.1 | 18.7 | – | – | – | – |
| GA077: PCSK9 gRNA for ABE8.8 splice site editing, Human/Cyno (nucleic acid, 2'-O-methyl at 1, 2, other sugars and backbone not given here; further chemistry not fully specified, PCSK9 gRNA for ABE8.8 splice site editing, Human/Cyno) guide: UCCCAGGCCTGGAGTTTATTGTTTTAGAGCTAGAAATAGCAAGTTAAAATAAGGCTAGTCCGTTATCAACTTGAAAAAGTGGCACCGAGTCGGTGCTTTT | 2.8 | 5.7 | 6.0 | – | 4.1 | 5.7 | 5.4 | – | – | – | – |
| GA079: PCSK9 gRNA for ABE8.8 splice site editing, Human/Cyno (nucleic acid, listed as RNA; modified_base 1: mod_base = OTHER; note = 2'-O-Methyl-cytidine phosphorothioate; modified_base 2: mod_base = OTHER; note = 2'-O-Methyl-uridine phosphorothioate; modified_bas, PCSK9 gRNA for ABE8.8 splice site editing, Human/Cyno) guide: CTTTCCAGGTCATCACAGTTGTTTTAGAGCTAGAAATAGCAAGTTAAAATAAGGCTAGTCCGTTATCAACTTGAAAAAGTGGCACCGAGTCGGTGCTTTT | 2.2 | 4.9 | 6.5 | – | 0.6 | 0.5 | 0.5 | – | – | – | – |
| GA072: PCSK9 gRNA for ABE8.8 splice site editing, Human/Cyno (nucleic acid, 2'-O-methyl at 1, 2, other sugars, backbone and T or U not given here; further chemistry not fully specified, PCSK9 gRNA for ABE8.8 splice site editing, Human/Cyno) guide: GGTGGCTCACCAGCTCCAGCGTTTTAGAGCTAGAAATAGCAAGTTAAAATAAGGCTAGTCCGTTATCAACTTGAAAAAGTGGCACCGAGTCGGTGCTTTT | 1.5 | 2.2 | 2.5 | – | 2.3 | 1.7 | 2.2 | – | – | – | – |
| GA151: ANGPTL3 gRNA; protospacer GAGAACTACAAATATGGTTT (SEQ ID NO: 149) (nucleic acid, 2'-O-methyl at 1, 2, other sugars and backbone not given here; further chemistry not fully specified) guide: GAGAACTACAAATATGGTTTGTTTTAGAGCTAGAAATAGCAAGTTAAAATAAGGCTAGTCCGTTATCAACTTGAAAAAGTGGCACCGAGTCGGTGCTTTT | – | – | – | – | – | – | – | 10.56 | 31.88 | 11.32 | 38.91 |
| GA073: PCSK9 gRNA; protospacer GCTTACCTGTCTGTGGAAGC (SEQ ID NO: 67), splice donor of intron 4 (nucleic acid, listed as RNA; modified_base 1: mod_base = OTHER; note = 2'-O-Methyl-guanosine phosphorothioate; modified_base 2: mod_base = OTHER; note = 2'-O-Methyl-cytidine phosphorothioate; modified_b) guide: GCTTACCTGTCTGTGGAAGCGTTTTAGAGCTAGAAATAGCAAGTTAAAATAAGGCTAGTCCGTTATCAACTTGAAAAAGTGGCACCGAGTCGGTGCTTTT | 11.2 | 17.5 | 25.4 | performing the best | 24.7 | 23.2 | 29.2 | – | – | – | – |
| GA107: ANGPTL3 gRNA; protospacer AGCCAATGGCCTCCTTCAGT (SEQ ID NO: 105) (nucleic acid, 2'-O-methyl at 1, 2, other sugars and backbone not given here; further chemistry not fully specified) guide: AGCCAATGGCCTCCTTCAGTGTTTTAGAGCTAGAAATAGCAAGTTAAAATAAGGCTAGTCCGTTATCAACTTGAAAAAGTGGCACCGAGTCGGTGCTTTT | – | – | – | – | – | – | – | 3.72 | 5.09 | 32.58 | – |

From patent US20250152746A1, “BASE EDITING OF ANGPTL3 AND METHODS OF USING SAME FOR TREATMENT OF DISEASE” (Verve Therapeutics, Inc., priority 2020, published 2025)
